Laboratory results reported in the supplement of paper PMC7125110.
± gives the standard error. Variants at the floor of the assay were thinned out.

B1: glmS ribozyme (parent)
chain: AUAAAAGCGCCAGAACUACAGAAAUGUAGUUGACGAGGAGGAGGUUUAUCGAAUUUUCGGCGGAUGCCUCCAAA

Experiments:
Conditions in all cases: with glucosamine-6-phosphate
glucosamine-6-phosphate [1] = variants of: B1; test: self-cleavage kobs at 160 uM GlcN6P; higher = faster cleavage; RNA array
In short: (§1)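 The measurements used barcoded ribozyme variants on sequenced MiSeq chips, transcribed in situ by E. coli RNA polymerase and tracked at 37 °C with a hybridised Cy3 probe. Glucosamine-6-phosphate, 40 μM to 10 mM in HEPES/KCl/Mg(OAc)2 buffer, was flowed in while tiles were imaged over ~14 h. Baseline-normalised signals, also normalised to non-cleaving reference variants, gave per-tile medians that were fit to one- or two-exponential decays for kobs. kcat and KM resulted from weighted Michaelis–Menten fits across concentrations.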

glucosamine-6-phosphate [2] = variants of: B1; test: self-cleavage kobs at 640 uM GlcN6P; higher = faster cleavage; RNA array
In short: as §1

glucosamine-6-phosphate [3] = variants of: B1; test: self-cleavage kobs at 2500 uM GlcN6P; higher = faster cleavage; RNA array
In short: as §1

glucosamine-6-phosphate [4] = variants of: B1; test: self-cleavage kobs at 10000 uM GlcN6P; higher = faster cleavage; RNA array
In short: as §1

Row | Variant | self-cleavage kobs at 160 uM GlcN6P (glucosamine-6-phosphate [1]) | self-cleavage kobs at 640 uM GlcN6P (glucosamine-6-phosphate [2]) | self-cleavage kobs at 2500 uM GlcN6P (glucosamine-6-phosphate [3]) | self-cleavage kobs at 10000 uM GlcN6P (glucosamine-6-phosphate [4])
1 | AUAAAAGCGCCCGAACUACAGAAAUGUAGUUGACGAGGAGGAGGUUUAUCCAAUUUCCGGCGGCUGCCUCCAAA | < 1e-05 s⁻¹ | < 1e-05 s⁻¹ | < 1e-05 s⁻¹ | 
2 | AUAAAAGCGCCGCAACUACAGAAAUGUAAUUGACGAGGAGGAGGUUUAUGGAAUUUUCGGCGGAUGCCUCCAAA | 0.00168 ± 0.00066 s⁻¹ |  | 4.52e-05 ± 1.8e-05 s⁻¹ | 
3 | AUAAAAGCGCGAGAACUACAGAAAUGUAGUUGACGAGGAGGAGGUUAAUCGAAUUUUCGGCGGAUGCCUCCAAA | < 1e-05 s⁻¹ | < 1e-05 s⁻¹ |  | < 1e-05 s⁻¹
4 | AUAAAAGCGCUCGAACUACAGAAAUGUAGUUGACGAGGAGGACGUUUAUCGAAUUUUCGGCGGAUGCCUCCAAA | < 1e-05 s⁻¹ |  | < 1e-05 s⁻¹ | 
5 | AUAAAAGCGCCGGAACUACAGAAAUGUAGUUGACGAGGAGGAGGUGUAUCGAAUUUUCUGCGGAUGCCUCCAAA | < 1e-05 s⁻¹ | < 1e-05 s⁻¹ | < 1e-05 s⁻¹ | 
6 | AUAAAAGCGCUAGAACUACAGAAAUGUAGUUGAUGAGGAGGAGGUUUAUCGAAUUUUCGGCGGAUCCCUCCAAA | < 1e-05 s⁻¹ |  | < 1e-05 s⁻¹ | 
7 | AUAAAAGCGCCGGAACUACAGAAAUGUAGUUGAAGGGGAGGAGGUUUAUCGAAUUUUCGGCGGAUGCCUCCAAA | < 1e-05 s⁻¹ |  | < 1e-05 s⁻¹ | 
8 | AUAAAAGCGCCGGAACUACAGAAAUGUAGUUGACGAGGAGGAGGUUUAUCGAAUUUUUAGCGGAUGCCUCCAAA | < 1e-05 s⁻¹ |  |  | 
9 | AUAAAAGCGCUAGAACUACAGAAAUGUAGUUGACGAGGACGAAGUUUAUCGAAUUUUCGUCGGAUGCCGUCAAA | < 1e-05 s⁻¹ |  | < 1e-05 s⁻¹ | 
10 | AUAAAAGCGCCCGUACUACAGAAAUGUAGUUGACGAGGAGGAGUAUUAUCGAAUUUUCGGCGGAUGCCUCCAAA | < 1e-05 s⁻¹ |  |  | 
11 | AUAAAAGCGCCCGAACUACAGAAAUGUAGUGGACGAGGAGGCGGUUUAUCGAAUUUUCGGCGGAUGCCGCCAAA | 0.000164 ± 3.1e-05 s⁻¹ |  | 0.00194 ± 0.00028 s⁻¹ | 
12 | AUAAAAGCGCCGGAACUACAGAAAUGUAGUUGACGAGGAUGAGGUUUAUCGAAUUUUCGGCAGAUGCCUCCAAA | < 1e-05 s⁻¹ |  |  | 
13 | AUAAAAGCGCCCGAACUACAGAAAUGUAGUUGACGAGGACGAGGUUUAUCGAAUUUUCGGGGGAUGCCUCCAAA | < 1e-05 s⁻¹ | < 1e-05 s⁻¹ | < 1e-05 s⁻¹ | < 1e-05 s⁻¹
14 | AUAAAAGCGCUAGAACUACAGAAAUGUAGUUGACGAGGAGGAGGUUUAUCUAGUUUUCGGCGGAUGCCUCCAAA | < 1e-05 s⁻¹ |  |  | 
15 | AUAAAAGCGCUAGAACUACAGAAAUGUAGUUGACGAGGAGGAGGUUUAUCGAAUUGUCGGCGGAUGCCUCCAAA | 4.58e-05 ± 1.6e-05 s⁻¹ | 0.000297 ± 5.6e-05 s⁻¹ | 0.000254 ± 9.7e-05 s⁻¹ | 0.00158 ± 0.00036 s⁻¹
16 | AUAAAAGCGCCUGUACUACAGAAAUGUAGUUGACGAGGAGGAGGAUUAUCGAAUUUUCGGCGGAUGCCUCCAAA | 0.000413 ± 0.0001 s⁻¹ | 0.00157 ± 0.00031 s⁻¹ | 0.00242 ± 0.00082 s⁻¹ | 
17 | AUAAAAGCGCCGGAACUACAGAAAUGUAGUUGACUAGGAGGAGGUUUAUCGAUUUUUCGGCGGAUGCCUCCAAA | < 1e-05 s⁻¹ |  |  | < 1e-05 s⁻¹

Row | Variant | self-cleavage kobs at 160 uM GlcN6P (glucosamine-6-phosphate [1]) | self-cleavage kobs at 640 uM GlcN6P (glucosamine-6-phosphate [2]) | self-cleavage kobs at 2500 uM GlcN6P (glucosamine-6-phosphate [3]) | self-cleavage kobs at 10000 uM GlcN6P (glucosamine-6-phosphate [4])
18 | AUAAAAGCGCUAGAACUACAGAAAUGUAGUUGACGAGGAGGAGGUUUAUCGAAUUUUCGGAGCAUGCCUCCAAA | < 1e-05 s⁻¹ | < 1e-05 s⁻¹ |  | 
19 | AUAAAAGCGCCCGAACUACAGAAAUGUAGUUGACGAGGAGGAGGUUUAUAGAGUUUUCGGCGUAUGCCUCCAAA | < 1e-05 s⁻¹ |  |  | 
20 | AUAAAAGCGCCGGUUCUACAGAAAUGUAGUUGACGAGGAGGAGGUUUAUCGAAUUUUCGGCGGAUGCCUCCAAA | 4.38e-05 ± 2.1e-05 s⁻¹ |  |  | 
21 | AUAAAAGCGCCGGAACUACAGAAAUGUAGUUGACGAGGAGGAGGUCUUUCGAAUUUUCGGCGGAUGCCUCCAAA | < 1e-05 s⁻¹ |  |  | 
22 | AUAAAAGCGCCCGAACUACAGAAAUGUAGUUGACGAGGAGGAGGUUUAUCGAAUUUUCGGCGUAUGCCUCCAAA | < 1e-05 s⁻¹ | < 1e-05 s⁻¹ |  | < 1e-05 s⁻¹
23 | AUAAAAGCGCCGGAACUACAGAAAUGUAGUUGACAAGGAGGAGGUUUAUCGAAUUUUCGGCGGAUGCCUCCAAA | < 1e-05 s⁻¹ | < 1e-05 s⁻¹ |  | < 1e-05 s⁻¹
24 | AUAAAAGCGCCGGCACUACAGAAAUGUAGUUGACGAGGAGGAGGUUUUUCGAAUUUUCGGCGGAUGCCUCCAAA | < 1e-05 s⁻¹ | < 1e-05 s⁻¹ | < 1e-05 s⁻¹ | 
25 | AUAAAAGCGCCGGCACUACAGAAAUGUAGUUGACGAGGAGGAGGUUUAUCGAAUUUUCGCCGGAUGCCUCCAAA | < 1e-05 s⁻¹ | < 1e-05 s⁻¹ |  | 
26 | AUAAAAGCGCCGGAACUACAGAAAUGUAGUUAACGAGGAGGAGGUUUAUCGAAUUUUCGGCGGAUGGUUCCAAA | 0.000534 ± 0.00025 s⁻¹ |  |  | 
27 | AUAAAAGCGCUAGAACUACAGAAAUGUAGUUUACGAGGAGGUGGUUUAUCGAAUUUUCGGCGGAUGCCUCCAAA | < 1e-05 s⁻¹ |  | < 1e-05 s⁻¹ | 
28 | AUAAAAGCGCCCGAACUACAGAAAUGUAGUUGACGAGGAGGAGGUUUAUCGAAUUUUCAGCGCAUGCCUCCAAA | < 1e-05 s⁻¹ | < 1e-05 s⁻¹ |  | 
29 | AUAAAAGCGCUAGAACUACAGAAAUGUAGUUGACGAGGAGGAGGUUUAUCGAAUGUUCGGCGGAUGCCUCAAAA | 3.73e-05 ± 1.5e-05 s⁻¹ | 8.41e-05 ± 1.7e-05 s⁻¹ | 0.000143 ± 5.3e-05 s⁻¹ | 
30 | AUAAAAGCGCCGGAACUACAGAAAUGUAGUUCACGAGGAGGAGGUUUAUCGAAUUUUCGGCGGAUGCCUCAAAA | < 1e-05 s⁻¹ | < 1e-05 s⁻¹ |  | 
31 | AUAAAAGCGCCGGAACUACAGAAAUGUAGUUGACGAGUAGGAGGUUUAUCGAAUUUCCGGCGGAUGCCUCCAAA | < 1e-05 s⁻¹ | < 1e-05 s⁻¹ |  | < 1e-05 s⁻¹
32 | AUAAAAGCGCCGGAACUACAGAAAUGUAGUUGACGAGGAGGAGGUUUAACGAAUUUUCGGCGUAUGCCUCCAAA | < 1e-05 s⁻¹ | < 1e-05 s⁻¹ |  | 
33 | AUAAAAGCGCCGGAACUACAGAAAUGUAGUUGACGCGGAGGAGGUUUAUCGAAUUUUCGGCGGAAGCCUCCAAA | < 1e-05 s⁻¹ | < 1e-05 s⁻¹ | < 1e-05 s⁻¹ | < 1e-05 s⁻¹
34 | AUAAAAGCGCCGGAACUACAGAAAUGUAGUUGACGAGGAGGAGGUUUAUCAAAUUUUCGGCGGAUGCCUCCAAA | < 1e-05 s⁻¹ | < 1e-05 s⁻¹ |  | < 1e-05 s⁻¹
